Measured values as given in the DeepSol protein solubility set.

Assay: soluble on expression in E. coli; label from the status in PepcDB or PDB records

Q: Which “soluble on expression in E. coli” value does the source give for “MEEDNQSPSPSESSIKTDYDAKIRVLYSTKNNKSEEESVFAHRLVLSTFSPLFQQLLQDATSSSTSTTSSTSSDDVISISLDLTAFPNALAAFKVILEALYTGDIKMKSVAANEVLAVSRHCQISSLEPKIMSAVAPLPLNLANILNCSQSVPLNSNPFLQYTSPPIQNYLSSMISLWSNPFFSALFGNTTGTPSLPFSPQSDTENSRTQSEGSSPRANSTSTPPTTDLEKIVPNDDKEGWCRNKKYIEKVDGGFMCTVCRKIYGRYNSVSYHVTIYHRNPPIKCEENGCNFSTREARYIHFHKYYRHHIPLPENIDLGSRKCPFCRHVSKSPAMLEKHIARHETDGTSGGTPGALKRAQSKKKIVPTMTTDVIDPNVSSIFAPTNPAGNIPIQCSLCPFSTHSTDLLFIHLAMQHAQELAQCSGLLADNSSETSTSSSSDGEPMITDIDLDVKPLIDQSLMLHLNTPLSN” here?
A: not soluble

Q: Which “soluble on expression in E. coli” value does the source give for “MEEETIKVENLDDSITIDRNPVPLAFCARPTLPAKIGMKTEDGIVDQLLDLVDPITVVNPTEIRQAPSLKSFGCDTESEFEFSGDDSDFENINDLRAGALDSDEEFDRLVKFSAKIIEKTHKSEYPDENGKKQRKPKKSQKTRNVHEYDDMPPLENLSIECKGQLLEFGFVSKVVDCQVVIISTCTEVLDFDSFLFDQKGNALGQIYDIFGQVKNPQYVIRFNSCEEASMIPIDMKVYYAPTEEQFSKTPFKGLNLAAANRDAIKSLNRRIDHQEAVAKAGETMAQVGIGSDVEFSDDEAEKEFKRTTYTQPASQMSRGFDSNRGRKRDRRGGQKVRFSAQNPPARSDNLGPIPQQPSAPPPPARPAQSTESNPYAEFGCHSGFNGRFGI” here?
A: not soluble

Q: For “MEELFCIGCGAQIQTEDKEKAGFTPASSIKKAEETGELYCQRCFRLRHYNEIVDVHITDDEFLKLLYEVGDSDALVVNVVDIFDFNGSIIPGLSRFVSGNDVLLVGNKKDILPKSVKDGKVTQWLTERAHEEGMRPVDVMLTSAQNHHAIKELIQRIEALRKGRDVYVVGVTNVGKSTLINAIIKEITGDKDVITTSRFPGTTLDKIEIPLDDGSYIFDTPGIIHRHQMAHYLSAKDLKYVSPKKEIKPKTYQLNAGQTLFLGGLGRFDFIDGDKQGFTAFFDNNLKLHRTKLDGADAFYDKHVGSLLMPPGPKELADFPKLVRHEFTIKDKTDVVFSGLGWIRVQGKTDQPTIVAAWAPEGVGVVVRKAIILEHHHHHH”, which “soluble on expression in E. coli” value is on record?
A: soluble

Q: For “MEENSKLGLIDVFTGDGKGKTTAAFGLAFRALGWGYRVYILQFMKTGVYGENKSAIMFDRNLKVDFVGMPYFIAWENEIPKEDLDKVKNVVICKKGHPPDDYRRAVKERFDRSLEELKSGKWDMFIYDEINVALYYYLLSMEEVMEIFKAKPDHTELVFTGRKMPKEIMERADLITEVSSPRHPYQRGILARRGVDF”, which “soluble on expression in E. coli” value is on record?
A: not soluble

Q: With “MEEPFEAYRSREVAMKLVEKIREEAKTLDGEIRIMHVCGTHEDTVTRHGIRSLLPENVKVVSGPGCPVCITPVEDIVAMQLIMRKAREEGEEIILTTFGDMYKIPTPMGSFADLKSEGFDVRIVYGIFDTYRIAKENPDKTVVHFSPGFETTTAPAAGMLNVAAQEELENFKIYSVHRLTPPAVEVLLKQGTVFQGLIAPGHVSTIIGVKGWEYLTEKYGIPQVVAGFEPNDVLMAILMLIRMYKEGEARIINEYERAVKYEGNVVAQKMIDKFFEVVDAKWRALGVFPKSGLELRKEWKDFEIRSFYKVEVPKNLPDLEKGCRCGAVLRGLALPTDCPLFGKTCTPRHPVGPCMVSYEGTCQIFYKYGVLF” as the sequence, how does the “soluble on expression in E. coli” value read?
A: soluble

Q: With “MEERILDRLAALDPDLMAYIRDFAYDTVYERPGLDLKTKELLASVLLVSLGSPDELKTHLRGALRAGATEQEVREALLLCVPYLGFPRTVAAFSQLQS” as the sequence, how does the “soluble on expression in E. coli” value read?
A: soluble

Q: With “MEETEFVPHKLTELRVGTLYGPQIYMTSGQGNSGFDYDMAVLFAEYLDVPLKMVPYTNLAELYDALKKNEIDIIAAGMTETPARREHFRLGPPLYRVNQVLVYREGMPAPKDISDLKGKITVIADSSFVETLTQLQKRHPTLVWDQVTDKDNEELLTMIANKEIDYTIADSSSVQINRRYLPVLRSGLVLEEKLNVVWLLPPTHSDGLMSQLLAFWHQEKLAGTLDHLNEKYFGHVKRFDYIDTRAFLRAIETVLPRYRQHFETHAGDLDWRKLAATSYQESHWNPNARSPTGVRGMMMLTQPTAKEIGITNRLDAEESIRGGAAYLRDMINRLPESIPESQRMWFALASYNIGYAHVEDARKLAESMELNPNAWQDLKKVLPLLQKRKYYQKTRYGYARGSEAVHYVDSIRRYYDTLVWVDNQSKQQNSEEVAPSDLTAEETPVPAPGTLSPDKPKLEHHHHHH” as the sequence, how does the “soluble on expression in E. coli” value read?
A: soluble

Q: For “MEFAAENEGKSGGGLHSVAEGVRLSPEPGREGVRDLAGAEEFGGGEEGTGLTGIKEIGDGEEGSGQRPEEIPMDLTVVKQEIIDWPGTEGRLAGQWVEQEVEDRPEVKDENAGVLEVKQETDSSLVVKEAKVGEPEVKEEKVKEEVMDWSEVKEEKDNLEIKQEEKFVGQCIKEELMHGECVKEEKDFLKKEIVDDTKVKEEPPINHPVGCKRKLAMSRCETCGTEEAKYRCPRCMRYSCSLPCVKKHKAELTCNGVRDKTAYISIQQFTEMNLLSDYRFLEDVARTADHISRDAFLKRPISNKYMYFMKNRARRQGINLKLLPNGFTKRKENSTFFDKKKQQFCWHVKLQFPQSQAEYIEKRVPDDKTINEILKPYIDPEKSDPVIRQRLKAYIRSQTGVQILMKIEYMQQNLVRYYELDPYKSLLDNLRNKVIIEYPTLHVVLKGSNNDMKVLHQVKSESTKNVGNEN”, which “soluble on expression in E. coli” value is on record?
A: soluble

Q: Which “soluble on expression in E. coli” value does the source give for “MEFFGETWRRELAAEFEKPYFKQLMSFVADERSRHTVYPPADQVYSWTEMCDIQDVKVVILGQDPYHGPNQAHGLCFSVQKPVPPPPSLVNIYKELCTDIDGFKHPGHGDLSGWAKQGVLLLNAVLTVRAHQANSHKDRGWETFTDAVIKWLSVNREGVVFLLWGSYAHKKGATIDRKRHHVLQAVHPSPLSAHRGFLGCKHFSKANGLLKLSGTEPINWRAL” here?
A: soluble

Q: Which “soluble on expression in E. coli” value does the source give for “MEFMRVERVLLKDYTTLGVGGPAELWTVETREELKRATEAPYRVLGNGSNLLVLDEGVPERVIRLAGEFQTYDLKGWVGAGTLLPLLVQEAARAGLSGLEGLLGIPAQVGGAVKMNAGTRFGEMADALEAVEVFHDGAFHVYCPEELGFGYRKSHLPPGGIVTRVRLKLKERPKEEILRRMAEVDRARKGQPKRKSAGCAFKNPPGQSAGRLIDERGLKGLRVGDAMISLEHGNFIVNLGQARAKDVLELVRRVQEELPLELEWEVWP” here?
A: soluble

Q: Which “soluble on expression in E. coli” value does the source give for “MEFNKLQLSHCISFYISDVSEVFFESINQHPSRDFVNNILQKIKSTLSEEELEKLNTIEEVTKDEKILIMLNHVLKKIVSKTGSSSCDLFQIVKHDRFNEPVYIQSVNAFENNLINNEFAERRYDYLIEINKHSYLRKYVNAIRISFFLDLRAQILSGSFTLDVINKQLEHQNKEELFQAIYLRSLIKHFISNQLYPISLNSFIFGDKNRENKTVENDKLSVLKNNWNQIFFSKYFDFVAKNKEERVVDNNCD” here?
A: not soluble

Q: Which “soluble on expression in E. coli” value does the source give for “MEFRRKCSRSAMRHKSQKRRAMPNQDVEKVNEIFKFPRISEQALMDGILKISCIASFKNGNQRCFEGSIYVKELCGLRNGTKVFKFIELANIRLYSIDEEDEIPEYDWIISV” here?
A: not soluble

Q: With “MEFSIKQSPLSVQSVVKCIKMKQAPEILGSANGKTPSCEVNRECSVFLSKAQLSSSLQEGVMQKFNGHDALPFIPADKLKDLTSRVFNGEPGAHDAKLRFESQEMKGIGTPPNTTPIKNGSPEIKLKITKTYMNGKPLFESSICGDSAADVSQSEENGQKPENKARRNRKRSIKYDSLLEQGLVEAALVSKISSPSDKKIPAKKESCPNTGRDKDHLLKYNVGDLVWSKVSGYPWWPCMVSADPLLHSYTKLKGQKKSARQYHVQFFGDAPERAWIFEKSLVAFEGEGQFEKLCQESAKQAPTKAEKIKLLKPISGKLRAQWEMGIVQAEEAASMSVEERKAKFTFLYVGDQLHLNPQVAKEAGIAAESLGEMAESSGVSEEAAENPKSVREECIPMKRRRRAKLCSSAETLESHPDIGKSTPQKTAEADPRRGVGSPPGRKKTTVSMPRSRKGDAASQFLVFCQKHRDEVVAEHPDASGEEIEELLRSQWSLLSEKQRARYNTKFALVAPVQAEEDSGNVNGKKRNHTKRIQDPTEDAEAEDTPRKRLRTDKHSLRKRDTITDKTARTSSYKAMEAASSLKSQAATKNLSDACKPLKKRNRASTAASSALGFSKSSSPSASLTENELLWEPTPVKLDLNPAALYCT” as the sequence, how does the “soluble on expression in E. coli” value read?
A: soluble

Q: For “MEGFSLNQDRGSMQDALKQYKHGLGTFEQKMPLMGRKFNEFTEQCFAGNSLTEREKQLIALGIAINAQDEYCMIYHTKGCLDQGASEENILEAVSVAAAFGGGAAFSQGVTVVQQCIEEFGNTTH”, which “soluble on expression in E. coli” value is on record?
A: soluble

Q: For “MEGTPNVPQAHRYELTLAGRPLVLETGKYAKQASGSVLVRYADTVVLATAQASETPVEADFLPLTVEFEERHYAVGKIPGSFMRREGRPGEKAILSARMTDRPIRPLFPKGFRHEVQIIVTVLSADQKNPPDILGPIAASAALMLSDIPWEGPIAAVRVGLIGGSFVLNPTLQELEESQLDLVVAGSKEAILMVEAEAGEVDEETLVQALEFAHKEMQPILELQEAMARELAKPKMAWTPPESLPEEEKEALYRLALERGLSQVLQTASKGERSRALAEFAERLIAEALPKGEDGTPDEGKKPLYESAFDEVVRRELRRLVLEEGKRADGRGPKDLRPIWIEVDVLPRAHGSAVFTRGETQVLGTVTLGTGRDEQILDDLGIDETEKFLVHYNFPPFSTGEVRRLRGVSRREVGHGNLAKRALKAVMPKEEDFPYTIRVVGDVLESNGSSSMATVCAGCLALMDAGVPIRAPVAGVAMGLVWEENRAVILTDILGLEDALGDMDFKVAGTRKGVTALQMDNKVGGLPREVLKEALLQAREARLKILDLMEAVLPAPRPELKPFAPRILSLKVPVEKIGLVIGPGGKNVRALEELGVEVDIEEDGTVRIYSSDLQAALEAKKRIEDLTREAKVGEIYEGTVTRITPFGAFISLFPGTEGLLHISQIAPGRVARVEDHLKVGDVIKVKVHRIDERGKIDLIRPELEGKIPPRRRR”, which “soluble on expression in E. coli” value is on record?
A: soluble

Q: For “MEHDLNDMMVFLAVVETGSFTLAADRLGMPKANVSRKVSRLEKNLAVTLLERSTRSQHLTEAGRRYLAHCKRIHEELDLATASVCELFHSYTGELKIGASVASGQQVLRPALGKFMRQYPDLKVQLNLVNRRVDFIEEGFDVVIRIGQLNDSMLIAKKLGAINRKIFASPSYLAKQGNPDKVEQLTEHQLLIMNPLNISGNKDLKLPLTSTDHETFTLDCQPRLLVDDFSMLKQAIVDGLGIGVLPDYMCRQEVASGQLVNILPDWGMAKVDIYALYPKHRAKIPKVKAFIDFVSELYGEVL”, which “soluble on expression in E. coli” value is on record?
A: not soluble

Q: Which “soluble on expression in E. coli” value does the source give for “MEHLSQDEVIRLASTPCSAPALKRAFLFSCLTALRKSDIKKLTWEEIQPYGSDGVMYVTTRMQKTKDIVHNPISEEALELIGYSPDKRGKVFPDFKDSMTQAPLKNWLKDAGITKHISYHCSRHSFACLQLDAGTSIAVVQRYLGHKNVATTEVYAKISDAQKRASVGLEHHHHHH” here?
A: not soluble

Q: For “MEHVAFGSEDIENTLAKMDDGQLDGLAFGAIQLDGDGNILQYNAAEGDITSRDPKQVIGKNFFKDVAPCTDSPEFYGKFKEGVASGNLNTMFEYTFDYQMTPTKVKVHMKKALSGDSYWVFVKRV”, which “soluble on expression in E. coli” value is on record?
A: soluble

Q: With “MEHYMNTLAETMQRYVEKHDLHNLEGIKQTAIEGVWFYRSSKGNNRQPFVYQSGIIVLGQGHKNIHIGQTPVQYGPDDYLVVGVPMPLECEAFATNNEPLLGISIDISPTLLHKLVKKLEAQKFSNICEDSKRCGLKSVRMNDAMLDACKRLMKALCNDLDVAILGESLLEEIVYRTLVSKEGYVLFELAHQEGSYARVAKALNRVHAEYHEQLNVQTLAEEANMSVSAFHQAFRSVTLESPLQYIKKVRLNKARDLIQLEGKRVNDAARLVGYSSPSQFSREYKRHFNETPRSTKA” as the sequence, how does the “soluble on expression in E. coli” value read?
A: not soluble
